The data set in a line: total protein half-life in vivo (active degradation + dilution); higher = more stable protein.
Where [1] appears, read: E. coli NCM3722 delta-smpB, growth: N-lim chemostat, doubling time 6 h.
[2] abbreviates: wild type E. coli NCM3722, growth: C-lim chemostat, doubling time 3 h.
Where [3] appears, read: wild type E. coli NCM3722, growth: C-lim chemostat, doubling time 6 h.
Setting [4] is: wild type E. coli NCM3722, growth: C-lim chemostat, doubling time 12 h.
Setting [5] is: wild type E. coli NCM3722, growth: N-lim chemostat, doubling time 12 h.
Setting [6] is: wild type E. coli NCM3722, growth: P-lim chemostat, doubling time 6 h.
[7] abbreviates: wild type E. coli NCM3722, growth: P-lim chemostat, doubling time 12 h.
Setting [8] is: E. coli NCM3722 delta-clpP delta-lon delta-hslV, growth: N-lim chemostat, doubling time 6 h.
[9] abbreviates: E. coli NCM3722 delta-clpP, growth: N-lim chemostat, doubling time 6 h.
Setting [10] is: E. coli NCM3722 delta-hslV, growth: N-lim chemostat, doubling time 6 h.
Setting [11] is: E. coli NCM3722 delta-lon, growth: N-lim chemostat, doubling time 6 h.
[12] abbreviates: wild type E. coli NCM3722, growth: N-lim chemostat, doubling time 6 h.

± gives the standard deviation of the averaged measurements.

From the supplement of paper PMC11246515 come the findings set out here.

With “MITHFRQAIEETLPWLSSFGADPAGGMTRLLYSPEWLETQQQFKKRMAASGLETRFDEVGNLYGRLNGTEYPQEVVLSGSHIDTVVNGGNLDGQFGALAAWLAIDWLKTQYGAPLRTVEVVAMAEEEGSRFPYVFWGSKNIFGLANPDDVRNICDAKGNSFVDAMKACGFTLPNAPLTPRQDIKAFVELHIEQGCVLESNGQSIGVVNAIVGQRRYTVTLNGESNHAGTTPMGYRRDTVYAFSRICHQSVEKAKRMGDPLVLTFGKVEPRPNTVNVVPGKTTFTIDCRHTDAAVLRDFTQQLENDMRAICDEMDIGIDIDLWMDEEPVPMNKELVATLTELCEREKLNYRVMHSGAGHDAQIFAPRVPTCMIFIPSINGISHNPAERTNITDLAEGVKTLALMLYQLAWQK”, the “total protein half-life in vivo” value under setting [1] worked out at 2.26 ± 0.15 h; the “total protein half-life in vivo” value under setting [2] came out at 2.76 ± 0.21 h; the “total protein half-life in vivo” value under setting [3] worked out at 3.86 ± 0.11 h; the “total protein half-life in vivo” value under setting [4] was 7.08 ± 1.6 h; the “total protein half-life in vivo” value under setting [5] was 3.88 h; the “total protein half-life in vivo” value under setting [6] was 3.54 h. Besides, the “total protein half-life in vivo” value under setting [7] was 6.32 h.
Consider “MDSIHGHEVLNMMIESGEQYTHASLEAAIKARFGEQARFHTCSAEGMTAGELVAFLAAKGKFIPSKDGFSTDQSKICRH”, for which the “total protein half-life in vivo” value under setting [3] stood at 5.53 h.
“MDRVLHFVLALAVVAILALLVSSDRKKIRIRYVIQLLVIEVLLAWFFLNSDVGLGFVKGFSEMFEKLLGFANEGTNFVFGSMNDQGLAFFFLKVLCPIVFISALIGILQHIRVLPVIIRAIGFLLSKVNGMGKLESFNAVSSLILGQSENFIAYKDILGKISRNRMYTMAATAMSTVSMSIVGAYMTMLEPKYVVAALVLNMFSTFIVLSLINPYRVDASEENIQMSNLHEGQSFFEMLGEYILAGFKVAIIVAAMLIGFIALIAALNALFATVTGWFGYSISFQGILGYIFYPIAWVMGVPSSEALQVGSIMATKLVSNEFVAMMDLQKIASTLSPRAEGIISVFLVSFANFSSIGIIAGAVKGLNEEQGNVVSRFGLKLVYGSTLVSVLSASIAALVL [P0AFF2]”: the “total protein half-life in vivo” value runs as follows: under setting [8], 7.07 ± 0.54 h; under setting [9], 6.45 ± 0.078 h; under setting [10], 6.09 ± 0.15 h; under setting [11], 5.82 ± 0.35 h; under setting [1], 6.04 ± 0.57 h; under setting [2], 3.61 ± 0.038 h. For the same sequence, the “total protein half-life in vivo” value runs as follows: under setting [3], 6.32 ± 0.029 h; under setting [12], 6.36 ± 0.65 h; under setting [5], 9.54 ± 3.4 h; under setting [6], 5.57 h; under setting [7], 13 ± 0.8 h.
Regarding “MTPLLELKDIRRSYPAGDEQVEVLKGISLDIYAGEMVAIVGASGSGKSTLMNILGCLDKATSGTYRVAGQDVATLDADALAQLRREHFGFIFQRYHLLSHLTAEQNVEVPAVYAGLERKQRLLRAQELLQRLGLEDRTEYYPAQLSGGQQQRVSIARALMNGGQVILADEPTGALDSHSGEEVMAILHQLRDRGHTVIIVTHDPQVAAQAERVIEIRDGEIVRNPPAIEKVNVTGGTEPVVNTVSGWRQFVSGFNEALTMAWRALAANKMRTLLTMLGIIIGIASVVSIVVVGDAAKQMVLADIRSIGTNTIDVYPGKDFGDDDPQYQQALKYDDLIAIQKQPWVASATPAVSQNLRLRYNNVDVAASANGVSGDYFNVYGMTFSEGNTFNQEQLNGRAQVVVLDSNTRRQLFPHKADVVGEVILVGNMPARVIGVAEEKQSMFGSSKVLRVWLPYSTMSGRVMGQSWLNSITVRVKEGFDSAEAEQQLTRLLSLRHGKKDFFTWNMDGVLKTVEKTTRTLQLFLTLVAVISLVVGGIGVMNIMLVSVTERTREIGIRMAVGARASDVLQQFLIEAVLVCLVGGALGITLSLLIAFTLQLFLPGWEIGFSPLALLLAFLCSTVTGILFGWLPARNAARLDPVDALARE”, the “total protein half-life in vivo” value amounted to 6.72 ± 0.55 h under setting [8]; 6.57 ± 0.25 h under setting [9]; 6.77 ± 0.99 h under setting [10]; 6.57 ± 1.3 h under setting [11]; 5.95 ± 0.35 h under setting [1]; 3.15 ± 0.084 h under setting [2]. The “total protein half-life in vivo” value was 5.92 ± 0.28 h under setting [3]; 12.4 ± 0.29 h under setting [4]; 6.2 ± 0.35 h under setting [12]; 12.6 ± 0.13 h under setting [5]; 6.45 ± 0.26 h under setting [6]; 11.9 ± 0.64 h under setting [7].
For “MSEAEARPTNFIRQIIDEDLASGKHTTVHTRFPPEPNGYLHIGHAKSICLNFGIAQDYKGQCNLRFDDTNPVKEDIEYVESIKNDVEWLGFHWSGNVRYSSDYFDQLHAYAIELINKGLAYVDELTPEQIREYRGTLTQPGKNSPYRDRSVEENLALFEKMRAGGFEEGKACLRAKIDMASPFIVMRDPVLYRIKFAEHHQTGNKWCIYPMYDFTHCISDALEGITHSLCTLEFQDNRRLYDWVLDNITIPVHPRQYEFSRLNLEYTVMSKRKLNLLVTDKHVEGWDDPRMPTISGLRRRGYTAASIREFCKRIGVTKQDNTIEMASLESCIREDLNENAPRAMAVIDPVKLVIENYQGEGEMVTMPNHPNKPEMGSRQVPFSGEIWIDRADFREEANKQYKRLVLGKEVRLRNAYVIKAERVEKDAEGNITTIFCTYDADTLSKDPADGRKVKGVIHWVSAAHALPVEIRLYDRLFSVPNPGAADDFLSVINPESLVIKQGFAEPSLKDAVAGKAFQFEREGYFCLDSRHSTAEKPVFNRTVGLRDTWAKVGE”, the “total protein half-life in vivo” value by setting is: under setting [8], 5.89 ± 0.95 h; under setting [9], 5.11 ± 0.2 h; under setting [10], 4.97 ± 0.059 h; under setting [11], 5.31 ± 0.48 h; under setting [1], 4.92 ± 0.16 h; under setting [2], 3.11 ± 0.31 h. For the same sequence, the “total protein half-life in vivo” value was found to be 6.39 ± 0.22 h under setting [3]; 11.47 ± 0.028 h under setting [4]; 5.25 ± 0.2 h under setting [12]; 9.02 ± 0.47 h under setting [5]; 5.959 ± 0.047 h under setting [6]; 12.1 ± 0.73 h under setting [7].
Take “MKITVLGCGALGQLWLTALCKQGHEVQGWLRVPQPYCSVNLVETDGSIFNESLTANDPDFLATSDLLLVTLKAWQVSDAVKSLASTLPVTTPILLIHNGMGTIEELQNIQQPLLMGTTTHAARRDGNVIIHVANGITHIGPARQQDGDYSYLADILQTVLPDVAWHNNIRAELWRKLAVNCVINPLTAIWNCPNGELRHHPQEIMQICEEVAAVIEREGHHTSAEDLRDYVMQVIDATAENISSMLQDIRALRHTEIDYINGFLLRRARAHGIAVPENTRLFEMVKRKESEYERIGTGLPRPW [P0A9J4]”: the “total protein half-life in vivo” value under setting [11] was 3.4 h; the “total protein half-life in vivo” value under setting [1] is 3.22 ± 0.64 h; the “total protein half-life in vivo” value under setting [4] turned out to be 4.51 h; the “total protein half-life in vivo” value under setting [12] came to 3.03 h; the “total protein half-life in vivo” value under setting [6] came to 5.73 ± 0.2 h.
As for “MAESTVTADSKLTSSDTRRRIWAIVGASSGNLVEWFDFYVYSFCSLYFAHIFFPSGNTTTQLLQTAGVFAAGFLMRPIGGWLFGRIADKHGRKKSMLLSVCMMCFGSLVIACLPGYETIGTWAPALLLLARLFQGLSVGGEYGTSATYMSEVAVEGRKGFYASFQYVTLIGGQLLALLVVVVLQHTMEDAALREWGWRIPFALGAVLAVVALWLRRQLDETSQQETRALKEAGSLKGLWRNRRAFIMVLGFTAAGSLCFYTFTTYMQKYLVNTAGMHANVASGIMTAALFVFMLIQPLIGALSDKIGRRTSMLCFGSLAAIFTVPILSALQNVSSPYAAFGLVMCALLIVSFYTSISGILKAEMFPAQVRALGVGLSYAVANAIFGGSAEYVALSLKSIGMETAFFWYVTLMAVVAFLVSLMLHRKGKGMRL [P0AEX3]”, the “total protein half-life in vivo” value is, setting by setting: under setting [1], 1.61 ± 0.23 h; under setting [2], 2.88 ± 0.36 h; under setting [3], 4.51 h; under setting [4], 10 ± 2.4 h; under setting [12], 2.01 h; under setting [6], 4.35 ± 0.23 h. Moreover, the “total protein half-life in vivo” value under setting [7] was 6.27 ± 0.29 h.
Regarding “MGQLIDGVWHDTWYDTKSTGGKFQRSASAFRNWLTADGAPGPTGTGGFIAEKDRYHLYVSLACPWAHRTLIMRKLKGLEPFISVSVVNPLMLENGWTFDDSFPGATGDTLYQNEFLYQLYLHADPHYSGRVTVPVLWDKKNHTIVSNESAEIIRMFNTAFDALGAKAGDYYPPALQTKIDELNGWIYDTVNNGVYKAGFATSQEAYDEAVAKVFESLARLEQILGQHRYLTGNQLTEADIRLWTTLVRFDPVYVTHFKCDKHRISDYLNLYGFLRDIYQMPGIAETVNFDHIRNHYFRSHKTINPTGIISIGPWQDLDEPHGRDVRFG”, the “total protein half-life in vivo” value reads like this: under setting [8], 6.05 ± 0.31 h; under setting [9], 4.89 ± 0.16 h; under setting [11], 5.03 ± 0.45 h; under setting [1], 5.01 ± 0.34 h; under setting [2], 3.53 ± 0.54 h; under setting [3], 5.64 ± 0.061 h. Besides, the “total protein half-life in vivo” value by setting is: under setting [12], 5.04 ± 0.15 h; under setting [5], 8.28 ± 0.38 h; under setting [6], 5.99 ± 0.58 h; under setting [7], 12.3 ± 0.26 h.
